Measured values as given in US5248605.

Test system: HpaII restriction endonuclease (R.HpaII) (Haemophilus parainfluenzae ATCC 49669)
Assay: cleavage_in_vitro
Settings: IPTG-induced E. coli extract; 1x REact 8 buffer, 30 min 37 C; HpaII digest pattern on agarose gel

phage lambda DNA
activity (units per g wet cells): > 50000
